We go through 1 molecule from patent publication US20080254496A1, “Methods for Detection of Fungal Disease” (priority 2005, published 2008).

This test in a line: D-arabinitol oxidase enzyme activity assay (H2O2 formation coupled to horse radish peroxidase/TMB, absorbance at 650 nm). The class given is biochemical. Particulars: ratio of oxidase activity with sorbitol as substrate to DA as substrate; protein extracts from E. coli, 10 mM sugar alcohol, pH 6.5, 23° C. How it is done: The D-arabinitol oxidase enzyme activity is assayed by the formation of H2O2 during the enzyme reaction (FIG. 1) as coupled with a peroxidase indicator reaction that catalyzes the oxidation of 3,3′,5,5′-tetramethylbenzidine hydrochloride (TMB), producing a colored product. An increase in absorbance is a direct measure of D-arabinitol oxidase activity. Enzyme activity is assayed in crude extracts and in purified protein preparations. […] In this reaction, formation of H2O2 results in the formation of blue color measurable by reading the absorbance at 650 nanometers (nm). Absorbance at 650 nm is followed kinetically using a Tecan Rainbow spectrophotometer at room temperature (23° C.). Milli-absorbance units per minute (mA/min) are calculated as the increase in absorbance at 650 nm/minute×1000. It is recognized that researchers skilled in the art may perform the assay as an end-point assay, by stopping reactions at various times with a solution of acid to produce a yellow color, and reading the absorbance at 450 nm. […]
DNA sequences encoding an SaOx protein (SEQ ID NO:3) are used as starting material for error prone PCR. Error-prone PCR is accomplished by performing PCR from DNA templates using a non-proof reading DNA polymerase such as Taq Polymerase, or by using a GeneMorph II Random Mutagenesis Kit (Stratagene). […]

B1: SaOX (wild type + His-tag): Streptomyces avermitilis oxidase (SEQ ID NO:4), wild type with C-terminal His-tag (STOP423LEHHHHHH) (protein, listed as Streptomyces avermitilis)
chain: MTDAGTALTNWAGNITYSAKELHRPQSLDALRALVADSAKVRVLGSGHSFNEIAEPGADGVLLSLTALPPSVEVDTAARTVRVAGGVRYAELARVVHGHGLALPNMASLPHISVAGSVATGTHGSGVTNGSLASAVREVELVTADGSAVRIGRGDDRFDGAVTALGALGVVTALTLDLEPDYRVAQQVFTELPLAGLDFDAVAASAYSVSLFTGWRTSGFAQVWLKRRTDRPSADFPWAAPATEAMHPVPGMPAVNCTQQFGVPGPWHERLPHFRAEFTPSSGAELQSEYLLPRPYALDALHALDAVRETVAPVLQICEVRTVAADAQWLSPAYGRDTVALHFTWVEDLAAVLPVVRRVEEALDPFDPRPHWGKVFAVPARVLRGRYPRLGDFRALVDSLDPGGKFTNAFVREVLGSGDRPS
modifications: C-terminal LEHHHHHH His-tag
Consider B1, for which the Sorb/DA came out at 14.8.
